Laboratory results as given in US20250019439A1 (Adimab, published 2025).

Assays:
ADI-70326 = target: T1, ADI-70326; assay: SPR Carterra avidity, yeast anti-ID
T1 construct: anti-CD3 antibody made in CHO cells, captured by anti-human Fc
Procedure: (§1) Kinetic analysis was conducted at 25° C. in an HBSTE running buffer system (Carterra Cat #3630) using a Carterra LSA (Carterra USA, Salt Lake City, UT). The sample compartment was maintained at 20° C. for the duration of each experiment.
(§2) For antibody capture experiments, a goat anti-human Fc antibody (Jackson ImmunoResearch) was covalently coupled to an HC30M sensor chip surface via standard amine coupling (1:1 EDC:NHS) and then blocked with ethanolamine (1.0 M, pH 8.5). Covalent coupling steps were performed in 25 mM MES buffer (Carterra, Cat #3625) plus 0.05% Tween20. The anti-CD3 antibodies (100 nM in running buffer) were flowed over discrete regions of interest on the chip surface for 5 minutes. […] Dissociation of the anti-idiotype antibodies was monitored for 300s. Several blank buffer samples were injected over the entire chip surface at the start of each non-regenerative kinetic cycle. The preceding blank buffer injection was used for blank surface subtraction. At the end of each non-regenerative kinetic cycle, all surfaces were regenerated via two 30s injections of 10 mM glycine, pH 1.7.
(§3) For data processing and fitting, sensorgrams were double reference subtracted with a baseline drift correction of 4 RU. Sensorgrams were y-aligned and baseline corrected, filtered and cropped to include only the association and dissociation steps. Data was fitted to a 1:1 binding model using Carterra Kinetics Data Analysis software version 1.7.1.3055.

ADI-70327 = target: T2, ADI-70327; assay: SPR Carterra avidity, yeast anti-ID
T2 construct: anti-CD3 antibody made in CHO cells, captured by anti-human Fc
Procedure: as §1, §2, §3

ADI-70330 = target: T3, ADI-70330; assay: SPR Carterra avidity, yeast anti-ID
T3 construct: anti-CD3 antibody made in CHO cells, captured by anti-human Fc
Procedure: as §1, §2, §3

ADI-67450 = target: T4, ADI-67450; assay: SPR Carterra avidity, yeast anti-ID
T4 construct: anti-CD3 antibody made in CHO cells, captured by anti-human Fc
Procedure: as §1, §2, §3

ADI-67445 = target: T5, ADI-67445; assay: SPR Carterra avidity, yeast anti-ID
T5 construct: anti-CD3 antibody made in CHO cells, captured by anti-human Fc
Procedure: as §1, §2, §3

ADI-67447 = target: T6, ADI-67447; assay: SPR Carterra avidity, yeast anti-ID
T6 construct: anti-CD3 antibody made in CHO cells, captured by anti-human Fc
Procedure: as §1, §2, §3

ADI-26909 = target: T7, ADI-26909; assay: SPR Carterra avidity, yeast anti-ID
T7 construct: anti-CD3 antibody made in CHO cells, captured by anti-human Fc
Procedure: as §1, §2, §3

ADI-26913 IgG = target: T8, ADI-26913 IgG; assay: SPR Carterra avidity, yeast anti-ID
T8 construct: anti-CD3 IgG
Procedure: as §1, §2, §3

ADI-26919 = target: T9, ADI-26919; assay: SPR Carterra avidity, yeast anti-ID
T9 construct: anti-CD3 antibody made in CHO cells, captured by anti-human Fc
Procedure: as §1, §2, §3

ADI-26921 IgG = target: T10, ADI-26921 IgG; assay: SPR Carterra avidity, yeast anti-ID
T10 construct: anti-CD3 IgG
Procedure: as §1, §2, §3

ADI-26916 IgG = target: T11, ADI-26916 IgG; assay: SPR Carterra avidity, yeast anti-ID
T11 construct: anti-CD3 IgG
Procedure: as §1, §2, §3

ADI-26912 = target: T12, ADI-26912; assay: SPR Carterra avidity, yeast anti-ID
T12 construct: anti-CD3 antibody made in CHO cells, captured by anti-human Fc
Procedure: as §1, §2, §3

ADI-26924 = target: T13, ADI-26924; assay: SPR Carterra avidity, yeast anti-ID
T13 construct: anti-CD3 antibody made in CHO cells, captured by anti-human Fc
Procedure: as §1, §2, §3

ADI-26915 = target: T14, ADI-26915; assay: SPR Carterra avidity, yeast anti-ID
T14 construct: anti-CD3 antibody made in CHO cells, captured by anti-human Fc
Procedure: as §1, §2, §3

ADI-26943 = target: T15, ADI-26943; assay: SPR Carterra avidity, yeast anti-ID
T15 construct: anti-CD3 antibody made in CHO cells, captured by anti-human Fc
Procedure: as §1, §2, §3

ADI-48576 = target: T16, ADI-48576; assay: SPR Carterra avidity, yeast anti-ID
T16 construct: pH-dependent anti-CD3 antibody made in CHO cells
Procedure: as §1, §2, §3

ADI-48587 = target: T17, ADI-48587; assay: SPR Carterra avidity, yeast anti-ID
T17 construct: pH-dependent anti-CD3 antibody made in CHO cells
Procedure: as §1, §2, §3

ADI-48592 = target: T18, ADI-48592; assay: SPR Carterra avidity, yeast anti-ID
T18 construct: pH-dependent anti-CD3 antibody made in CHO cells
Procedure: as §1, §2, §3

ADI-48650 = target: T19, ADI-48650; assay: SPR Carterra avidity, yeast anti-ID
T19 construct: pH-dependent anti-CD3 antibody made in CHO cells
Procedure: as §1, §2, §3

ADI-74965 = target: T20, ADI-74965; assay: SPR Carterra avidity, yeast anti-ID
T20 construct: pH-dependent anti-CD3 antibody made in CHO cells
Procedure: as §1, §2, §3

ADI-74966 = target: T21, ADI-74966; assay: SPR Carterra avidity, yeast anti-ID
T21 construct: pH-dependent anti-CD3 antibody made in CHO cells
Procedure: as §1, §2, §3

ADI-74968 = target: T22, ADI-74968; assay: SPR Carterra avidity, yeast anti-ID
T22 construct: pH-dependent anti-CD3 antibody made in CHO cells
Procedure: as §1, §2, §3

ADI-76358 = target: T23, ADI-76358; assay: SPR Carterra avidity, yeast anti-ID
T23 construct: anti-CD3 antibody made in CHO cells, captured by anti-human Fc
Procedure: as §1, §2, §3

ADI-76359 = target: T24, ADI-76359; assay: SPR Carterra avidity, yeast anti-ID
T24 construct: anti-CD3 antibody made in CHO cells, captured by anti-human Fc
Procedure: as §1, §2, §3

ADI-76360 = target: T25, ADI-76360; assay: SPR Carterra avidity, yeast anti-ID
T25 construct: anti-CD3 antibody made in CHO cells, captured by anti-human Fc
Procedure: as §1, §2, §3

ADI-76362 = target: T26, ADI-76362; assay: SPR Carterra avidity, yeast anti-ID
T26 construct: anti-CD3 antibody made in CHO cells, captured by anti-human Fc
Procedure: as §1, §2, §3

CTL-62223 = target: T27, CTL-62223; assay: SPR Carterra avidity, yeast anti-ID
T27 construct: also called mosunetuzumab
Procedure: as §1, §2, §3

ADI-22523 Fab = target: T28, ADI-22523 Fab; assay: BLI; tip anti-ID IgG, solution ADI-22523 Fab
T28 construct: anti-CD3 Fab by papain digestion of the IgG
Procedure: (§4) ForteBio affinity measurements were performed generally as previously described (Estep et al., MAbs. 2013 5(2):270-8). Briefly, ForteBio affinity measurements were performed by loading antibody IgG or Fabs on-line onto AHC sensors. Sensors were equilibrated off-line in assay buffer for 30 minutes and then monitored on-line for 60 seconds for baseline establishment. For avid binding measurement, sensors with loaded antibodies were exposed to IgG or Fab solutions for 3 minutes, afterwards they were transferred to assay buffer for 3 minutes for off-rate measurement. Kinetics data were fit using a 1:1 binding model in the data analysis software provided by ForteBio to obtain equilibrium dissociation constant (KD=koff/kₒₙ) values. In each column, tip-immobilized antibodies are listed first and solution antibodies second.

ADI-22523 IgG = target: T29, ADI-22523 IgG; assay: BLI; tip anti-ID IgG, solution ADI-22523 IgG
T29 construct: anti-CD3 IgG
Procedure: as §4

ADI-50024 = target: T30, ADI-50024; assay: SPR Carterra avidity, yeast anti-ID, *koff limit
T30 construct: anti-CD3 antibody made in CHO cells, captured by anti-human Fc
Procedure: as §1, §2, §3

ADI-26906 IgG = target: T31, ADI-26906 IgG; assay: SPR Carterra avidity, yeast anti-ID, *koff limit
T31 construct: anti-CD3 IgG
Procedure: as §1, §2, §3

ADI-26920 IgG = target: T32, ADI-26920 IgG; assay: SPR Carterra avidity, yeast anti-ID, *koff limit
T32 construct: anti-CD3 IgG
Procedure: as §1, §2, §3

ADI-74967 = target: T33, ADI-74967; assay: SPR Carterra avidity, yeast anti-ID, *koff limit
T33 construct: pH-dependent anti-CD3 antibody made in CHO cells
Procedure: as §1, §2, §3

ADI-76357 = target: T34, ADI-76357; assay: SPR Carterra avidity, yeast anti-ID, *koff limit
T34 construct: anti-CD3 antibody made in CHO cells, captured by anti-human Fc
Procedure: as §1, §2, §3

ADI-76361 = target: T35, ADI-76361; assay: SPR Carterra avidity, yeast anti-ID, *koff limit
T35 construct: anti-CD3 antibody made in CHO cells, captured by anti-human Fc
Procedure: as §1, §2, §3

T14 sequence (VH, as listed by the source, chain 1 of 2): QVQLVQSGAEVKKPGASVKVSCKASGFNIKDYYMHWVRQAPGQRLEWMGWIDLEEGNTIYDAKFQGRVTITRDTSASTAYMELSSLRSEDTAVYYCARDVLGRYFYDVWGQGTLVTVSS
T14 sequence (VL, as listed by the source, chain 2 of 2): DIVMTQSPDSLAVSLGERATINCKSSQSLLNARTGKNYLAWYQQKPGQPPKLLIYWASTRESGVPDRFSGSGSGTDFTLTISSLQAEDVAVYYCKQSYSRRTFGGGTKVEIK
T8 sequence (VH, as listed by the source limits assumed, chain 1 of 2): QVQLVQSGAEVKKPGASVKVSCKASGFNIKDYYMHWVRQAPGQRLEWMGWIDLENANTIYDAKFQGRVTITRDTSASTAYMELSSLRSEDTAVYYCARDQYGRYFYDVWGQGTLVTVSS
T35 sequence (VH, as listed by the source, chain 1 of 2): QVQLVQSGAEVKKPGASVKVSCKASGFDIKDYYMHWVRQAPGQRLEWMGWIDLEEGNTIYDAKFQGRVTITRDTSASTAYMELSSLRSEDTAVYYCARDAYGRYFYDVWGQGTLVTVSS
T35 sequence (VL, as listed by the source, chain 2 of 2): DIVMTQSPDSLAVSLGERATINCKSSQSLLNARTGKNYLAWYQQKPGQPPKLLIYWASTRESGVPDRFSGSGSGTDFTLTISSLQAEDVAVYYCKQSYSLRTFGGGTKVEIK
T4 sequence (VH, as listed by the source limits assumed, chain 1 of 2): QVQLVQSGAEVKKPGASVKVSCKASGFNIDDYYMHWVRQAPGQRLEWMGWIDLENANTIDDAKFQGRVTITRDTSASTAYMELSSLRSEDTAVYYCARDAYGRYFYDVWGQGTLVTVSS
T12 sequence (VH, as listed by the source, chain 1 of 2): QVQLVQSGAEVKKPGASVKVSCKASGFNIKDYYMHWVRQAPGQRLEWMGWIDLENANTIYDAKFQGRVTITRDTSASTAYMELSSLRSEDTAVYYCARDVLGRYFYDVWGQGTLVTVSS
T32 sequence (VH, as listed by the source limits assumed, chain 1 of 2): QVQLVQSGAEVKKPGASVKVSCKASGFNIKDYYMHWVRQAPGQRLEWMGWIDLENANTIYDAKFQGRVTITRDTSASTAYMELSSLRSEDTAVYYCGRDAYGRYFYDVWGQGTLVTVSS
T5 sequence (VH, as listed by the source limits assumed, chain 1 of 2): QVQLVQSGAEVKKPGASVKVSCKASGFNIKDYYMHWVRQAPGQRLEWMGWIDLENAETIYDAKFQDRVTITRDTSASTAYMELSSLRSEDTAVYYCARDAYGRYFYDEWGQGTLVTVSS
T15 sequence (VH, as listed by the source, chain 1 of 2): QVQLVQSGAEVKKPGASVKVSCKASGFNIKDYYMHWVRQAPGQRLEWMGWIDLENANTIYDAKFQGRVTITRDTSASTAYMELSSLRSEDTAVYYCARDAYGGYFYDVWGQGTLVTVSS
T15 sequence (VL, as listed by the source, chain 2 of 2): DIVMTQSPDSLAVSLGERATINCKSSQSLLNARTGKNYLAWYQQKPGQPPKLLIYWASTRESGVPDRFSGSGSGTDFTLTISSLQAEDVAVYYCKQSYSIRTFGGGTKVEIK
T16 sequence (VH, as listed by the source, chain 1 of 2): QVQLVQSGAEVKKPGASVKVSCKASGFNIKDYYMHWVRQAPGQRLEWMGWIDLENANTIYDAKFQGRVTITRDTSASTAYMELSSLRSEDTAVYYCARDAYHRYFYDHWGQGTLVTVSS
T16 sequence (VL, as listed by the source, chain 2 of 2): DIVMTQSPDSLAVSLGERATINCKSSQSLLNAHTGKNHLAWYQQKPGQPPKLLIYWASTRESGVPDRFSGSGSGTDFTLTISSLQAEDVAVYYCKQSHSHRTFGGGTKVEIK
T27 sequence (VH, as listed by the source, chain 1 of 2): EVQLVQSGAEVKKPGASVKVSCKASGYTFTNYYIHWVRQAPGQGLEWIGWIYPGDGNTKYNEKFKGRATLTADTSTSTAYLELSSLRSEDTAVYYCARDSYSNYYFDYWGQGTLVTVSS
T27 sequence (VL, as listed by the source, chain 2 of 2): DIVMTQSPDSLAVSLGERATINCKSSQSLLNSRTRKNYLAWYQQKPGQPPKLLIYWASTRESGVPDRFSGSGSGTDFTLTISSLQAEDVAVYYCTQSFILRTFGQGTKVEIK
T13 sequence (VH, as listed by the source, chain 1 of 2): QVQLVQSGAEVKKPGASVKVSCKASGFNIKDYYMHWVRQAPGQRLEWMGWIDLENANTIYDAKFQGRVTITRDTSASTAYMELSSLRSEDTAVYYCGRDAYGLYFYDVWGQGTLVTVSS
T10 sequence (VH, as listed by the source limits assumed, chain 1 of 2): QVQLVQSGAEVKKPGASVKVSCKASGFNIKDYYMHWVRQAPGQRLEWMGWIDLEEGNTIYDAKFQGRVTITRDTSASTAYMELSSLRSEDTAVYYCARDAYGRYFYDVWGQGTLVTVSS
T34 sequence (VH, as listed by the source, chain 1 of 2): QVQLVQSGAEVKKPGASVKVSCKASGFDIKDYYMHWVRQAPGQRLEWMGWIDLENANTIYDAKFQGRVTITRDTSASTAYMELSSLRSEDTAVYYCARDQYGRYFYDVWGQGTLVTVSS
T28 sequence (VH, as listed by the source limits assumed, chain 1 of 2): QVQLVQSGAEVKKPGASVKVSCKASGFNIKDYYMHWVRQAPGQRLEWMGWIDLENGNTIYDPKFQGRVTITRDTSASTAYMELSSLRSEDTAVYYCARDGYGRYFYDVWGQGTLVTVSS
T28 sequence (VL, as listed by the source limits assumed, chain 2 of 2): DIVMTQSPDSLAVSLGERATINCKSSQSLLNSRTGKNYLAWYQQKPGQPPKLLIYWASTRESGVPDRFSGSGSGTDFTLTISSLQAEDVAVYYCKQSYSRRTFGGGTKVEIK
T25 sequence (VH, as listed by the source, chain 1 of 2): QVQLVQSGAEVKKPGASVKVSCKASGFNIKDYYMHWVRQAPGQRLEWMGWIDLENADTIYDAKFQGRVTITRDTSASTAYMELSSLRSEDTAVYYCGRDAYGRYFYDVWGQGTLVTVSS
T23 sequence (VH, as listed by the source, chain 1 of 2): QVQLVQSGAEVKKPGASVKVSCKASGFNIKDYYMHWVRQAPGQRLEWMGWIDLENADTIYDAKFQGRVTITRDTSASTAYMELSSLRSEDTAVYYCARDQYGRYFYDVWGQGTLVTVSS
T11 sequence (VH, as listed by the source, chain 1 of 2): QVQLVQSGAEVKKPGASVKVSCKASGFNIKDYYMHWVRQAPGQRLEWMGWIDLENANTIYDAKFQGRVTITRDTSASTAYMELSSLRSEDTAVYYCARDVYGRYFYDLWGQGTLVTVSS

Kd (ADI-70326): 2100 pM
Kd (ADI-70327): 2000 pM
Kd (ADI-70330): 420 pM
Kd (ADI-67450): 560 pM
Kd (ADI-67445): 340 pM
Kd (ADI-67447): 180 pM
Kd (ADI-26909): 300 pM
Kd (ADI-26913 IgG): 180 pM
Kd (ADI-26919): 160 pM
Kd (ADI-26921 IgG): 180 pM
Kd (ADI-26916 IgG): 350 pM
binding result (ADI-26912): binds
Kd (ADI-26924): 170 pM
binding result (ADI-26915): binds
Kd (ADI-26943): 250 pM
Kd (ADI-48576): 29000 pM
Kd (ADI-48587): 1900 pM
binding result (ADI-48592): binds
Kd (ADI-48650): 3300 pM
Kd (ADI-74965): 9400 pM
Kd (ADI-74966): 640 pM
Kd (ADI-74968): 1200 pM
Kd (ADI-76358): 730 pM
Kd (ADI-76359): 120 pM
Kd (ADI-76360): 350 pM
Kd (ADI-76362): 140 pM
Kd (CTL-62223): 1200 pM
Kd (ADI-22523 Fab): 30400 pM
Kd (ADI-22523 IgG): 750 pM
Kd (ADI-50024): 420 pM
Kd (ADI-26906 IgG): 250 pM
Kd (ADI-26920 IgG): 140 pM
Kd (ADI-74967): 150 pM
Kd (ADI-76357): 120 pM
Kd (ADI-76361): 100 pM
B1: ADI-34136 (antibody, V domains shown)
VH: QVQLVQSGAEVKKPGSSVKVSCKASGGTFSSYAISWVRQAPGQGLEWMGGIIPIFGTANYAQKFQGRVTITADESTSTAYMELSSLRSEDTAVYYCARGAPNYYGSGGYDDGWFDPWGQGTLVTVSS
VL: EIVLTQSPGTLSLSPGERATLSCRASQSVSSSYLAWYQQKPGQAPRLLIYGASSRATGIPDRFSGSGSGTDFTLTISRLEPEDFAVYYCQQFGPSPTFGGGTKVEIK
notes: anti-ID IgG
